Molecular target: the molecule itself
Assay: SEC; analytical size-exclusion chromatography of wild type non-tagged GFA, calibrated with standard protein samples; apparent Mw = 42 kDa

B1: glutathione-dependent formaldehyde-activating enzyme (GFA) from Paracoccus denitrificans, wild type, non-tagged (enzyme)
chain: GHMVDTSGVKIHPAVDNGIKPAQPGFAGGTLHCKCSTNPVRVAVRAQTAHNHVCGCTKCWKPEGAIFSQVAVVGRDALEVLEGAEKLEIVNAEAPIQRHRCRDCGVHMYGRIENRDHPFYGLDFVHTELSDEDGWSAPEFAAFVSSIIESGVDPSRMEAIRARLRELGLEPYDALSPPLMDAIATHIAKRSGALAA
notes: an additional glycine residue and a histidine residue left on the N-terminus after TEV protease removal of the His-Tag; Expressed from a modified pET16b plasmid with a TEV site between the His-Tag and the insert; also called GFA WT; wild type non-tagged GFA; not shown: His-Tag, N-terminal, cleaved
  stoichiometry N: 2

From publication PMC4682968, “Studies on the Glutathione-Dependent Formaldehyde-Activating Enzyme from Paracoccus denitrificans” (PLoS ONE, 2015)
